{"source": "the supplement of paper PMC9170038", "test_system": "MS2 coat protein", "test": "apparent KD of MS2 coat protein; designed switch direction (-1 OFF switch, 1 ON switch): -1; higher = weaker reporter binding", "procedure,_shortened": "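For each design, the apparent KD is the median over clusters of curves fitted to normalised cluster fluorescence. Clusters held RNA switches with common flanks, transcribed on Illumina chips by stalled E. coli RNA polymerase. These were titrated with SNAP-549-labelled MS2 coat protein, doubling from 0.7 or 1.5 nM to 3 µM, without input, with 200 uM small-molecule ligand, or with an oligonucleotide input.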", "key": {"[1]": {"conditions": "Eterna round: R95, input ligand: FMN 200 uM"}, "[2]": {"conditions": "Eterna round: R95, input ligand: microRNA oligo, concentration not stated"}, "[3]": {"conditions": "Eterna round: R95, input ligand: none"}, "[4]": {"conditions": "input ligand: microRNA oligo, concentration not stated"}}}
{"sequence": "GGUACUAACACGAUAGUGUUAGUACAAUAAGCUUGUGUUACAUGAGGAUCACCCAUGUCCUCAUAAGCUCGUCUUAU [Mat - Sensor v3 - Turn-off var 2 - D56] (puzzle: Sensor v3, turn-off variant 2)", "values": [{"measurement": "apparent KD of MS2 coat protein", "setting": "[1]", "result": 117, "unit": "nM"}, {"measurement": "apparent KD of MS2 coat protein", "setting": "[2]", "result": 102, "unit": "nM"}, {"measurement": "apparent KD of MS2 coat protein", "setting": "[3]", "result": 108, "unit": "nM"}]}
{"sequence": "CCAGCGUAUGUGAGGAUAUGCUGGUCCUUGGAUCAGCAGAAGGCACAUGAGGAUCACCCAUGUGAGAGCGUUGG [JL bmx4 3.37] (Eterna round: R96, puzzle: Brourd's mod of Exclusion 4)", "values": [{"measurement": "apparent KD of MS2 coat protein", "setting": "input ligand: FMN 200 uM", "result": 187, "unit": "nM"}, {"measurement": "apparent KD of MS2 coat protein", "setting": "[4]", "result": 25.6, "unit": "nM"}, {"measurement": "apparent KD of MS2 coat protein", "setting": "input ligand: none", "result": 30.4, "unit": "nM"}]}
{"sequence": "AAAAGCUCAGUCAGGAUAUGCAUUUGCACCGGCGAGCAGAAGGGACAUGAGGAUCACCCAUGUACGCGGCAGGG [Laaraor] (puzzle: Brourd's mod of Exclusion 4)", "values": [{"measurement": "apparent KD of MS2 coat protein", "setting": "[1]", "result": 80.8, "unit": "nM"}, {"measurement": "apparent KD of MS2 coat protein", "setting": "[2]", "result": 37.1, "unit": "nM"}, {"measurement": "apparent KD of MS2 coat protein", "setting": "[3]", "result": 59.9, "unit": "nM"}]}
{"sequence": "UUCCUCUUAACAUGAGGAUCACCCAUGUAUUAUUUGGUAAUUGAGGAUAUAUUUUUAAUGUUUAUAUAGAAGGCAAAUACAGUU [JR_ExcNG3_Sub094] (Eterna round: R96, puzzle: Exclusion NG 3)", "values": [{"measurement": "apparent KD of MS2 coat protein", "setting": "[4]", "result": 36.1, "unit": "nM"}]}
{"sequence": "ACAUAGGUAGGAUAUCUAAGUUGAUACAUGAGGAUCACCCAUGUGUUACUCAAGAUCUACAGAGAAGGGCCUGAGG [Eternabot (L2) Solution 93] (Eterna round: R97, puzzle: Exclusion 5)", "values": [{"measurement": "apparent KD of MS2 coat protein", "setting": "input ligand: FMN 200 uM", "result": 19.7, "unit": "nM"}, {"measurement": "apparent KD of MS2 coat protein", "setting": "input ligand: none", "result": 15.3, "unit": "nM"}]}
{"sequence": "GUCCGGCAUGUAGGAUAUGGAUCCGAUUAGGAUCCAGAAGGACAUGAGGAUCACCCAUGUACAUGUAAACAGUCAUCACCGGAC [Fiskers ExNg1 - 13] (Eterna round: R96, puzzle: Exclusion NG 1)", "values": [{"measurement": "apparent KD of MS2 coat protein", "setting": "input ligand: FMN 200 uM", "result": 44.6, "unit": "nM"}, {"measurement": "apparent KD of MS2 coat protein", "setting": "[4]", "result": 14.1, "unit": "nM"}, {"measurement": "apparent KD of MS2 coat protein", "setting": "input ligand: none", "result": 18.7, "unit": "nM"}]}
{"sequence": "GGUUAGGCAGGAUAUACCCACAGUGUCUGUAGAAUCGCAAGACAUGAGGAUCACCCAUGUAGAAGGGCCGACCG [Eternabot (L1) Solution 1] (Eterna round: R97, puzzle: Exclusion 2)", "values": [{"measurement": "apparent KD of MS2 coat protein", "setting": "input ligand: FMN 200 uM", "result": 184, "unit": "nM"}, {"measurement": "apparent KD of MS2 coat protein", "setting": "input ligand: none", "result": 273, "unit": "nM"}]}
{"sequence": "UCGAUGUGAGGAUAUAUAUGCAGUAAUCCUUAUAUUUUAUAACUUGAGGAUCACCCAAGUAGAAGGCGCGACGU [JR_Ex2_Sub058] (Eterna round: R97, puzzle: Exclusion 2)", "values": [{"measurement": "apparent KD of MS2 coat protein", "setting": "input ligand: FMN 200 uM", "result": 27.3, "unit": "nM"}, {"measurement": "apparent KD of MS2 coat protein", "setting": "input ligand: none", "result": 31.1, "unit": "nM"}]}
{"sequence": "GAUUACUGCAAGCUUUGGAACAUGAGGAUCACCCAUGUUCGUCUUAUUGAUCUAGGUACGCUGACGUACCUAGAUCU [JL-sv1-2.30 Brourd mod] (puzzle: Sensor v3, turn-off variant 1)", "values": [{"measurement": "apparent KD of MS2 coat protein", "setting": "[1]", "result": 15.5, "unit": "nM"}, {"measurement": "apparent KD of MS2 coat protein", "setting": "[2]", "result": 16.2, "unit": "nM"}, {"measurement": "apparent KD of MS2 coat protein", "setting": "[3]", "result": 13.6, "unit": "nM"}]}
{"sequence": "UUUCGGUCAGGAUAUCCCGUACUACUAGCCGCGACUUACGAGGAGAAGGGACAUGAGGAUCACCCAUGUGCGCU [Colors] (Eterna round: R97, puzzle: Exclusion 4)", "values": [{"measurement": "apparent KD of MS2 coat protein", "setting": "input ligand: FMN 200 uM", "result": 16.2, "unit": "nM"}, {"measurement": "apparent KD of MS2 coat protein", "setting": "input ligand: none", "result": 14.7, "unit": "nM"}]}
{"sequence": "AAUUUACAUGAGGAUCACCCAUGUCAGGAUAUGGUUUUAUUUUUUUCUUUUUUUGAUUCCAGAAGGGACAGUUA (puzzle: Exclusion 1)", "values": [{"measurement": "apparent KD of MS2 coat protein", "setting": "[2]", "result": 91.5, "unit": "nM"}]}
{"sequence": "UGUGUGUGAGGAUAUACAAUGCGCGCGCGAAAGUGUGUGUUACAUGAGGAUCACCCAUGUAGAAGGCGCGCGCG [-31, -27.8 kcal A 24%, 6,6bis] (Eterna round: R97, puzzle: Exclusion 2)", "values": [{"measurement": "apparent KD of MS2 coat protein", "setting": "input ligand: FMN 200 uM", "result": 15.7, "unit": "nM"}, {"measurement": "apparent KD of MS2 coat protein", "setting": "input ligand: none", "result": 17, "unit": "nM"}]}
{"sequence": "AAUUCACAUGAGGAUCACCCAUGUCAGGAUAUGGUUUCGCGGGUUUCGGUGCGUGAGGCCAGAAGGGACAGCUA (puzzle: Exclusion 1)", "values": [{"measurement": "apparent KD of MS2 coat protein", "setting": "[2]", "result": 49.2, "unit": "nM"}]}
{"sequence": "AUUGAUGUUGAGGAUAUGCUUUUAUUUAUUCUUGCAGAAGGCGAUACAUGAGGAUCACCCAUGUUCAUGGAAGU [JR_E6_Sub091] (puzzle: Exclusion 6)", "values": [{"measurement": "apparent KD of MS2 coat protein", "setting": "[2]", "result": 30.7, "unit": "nM"}]}
{"sequence": "AGGUGUAGAGGAUAUCUCUUCUCUCACAUGAGGAUCACCCAUGUCCUGGGUACCUGGGAGAGAGAAGGCUACACCA [Omei Ex5 D12] (Eterna round: R97, puzzle: Exclusion 5)", "values": [{"measurement": "apparent KD of MS2 coat protein", "setting": "input ligand: FMN 200 uM", "result": 1060, "unit": "nM"}, {"measurement": "apparent KD of MS2 coat protein", "setting": "input ligand: none", "result": 2460, "unit": "nM"}]}
{"sequence": "CUUUUUUUUGUGAGGAUAUACUGUUAUUAAAGUUAGUAGAAGGUACAUGAGGAUCACCCAUGUUAAUUACUCUA [JR_BME4_Sub049] (puzzle: Brourd's mod of Exclusion 4)", "values": [{"measurement": "apparent KD of MS2 coat protein", "setting": "[2]", "result": 14.2, "unit": "nM"}]}
{"sequence": "UGUCUGUCAGGAUAUUCGAGUUCGAGUGAAAGCUUGAGCUUGAAGAAGGGACAUGAGGAUCACCCAUGUGGACG [-28.5, -27.4 kcal, A 27%, 1bis-(ca)1] (Eterna round: R97, puzzle: Exclusion 4)", "values": [{"measurement": "apparent KD of MS2 coat protein", "setting": "input ligand: FMN 200 uM", "result": 87.8, "unit": "nM"}, {"measurement": "apparent KD of MS2 coat protein", "setting": "input ligand: none", "result": 50.1, "unit": "nM"}]}
{"sequence": "ACUGUUGCAGGAUAUAUGGUGCUAGACAUGAGGAUCACCCAUGUAGGCCUUGUCUAGCAGGUAGAAGGGCACCCAC [Eternabot (L1) Solution 94] (Eterna round: R97, puzzle: Exclusion 5)", "values": [{"measurement": "apparent KD of MS2 coat protein", "setting": "input ligand: FMN 200 uM", "result": 503, "unit": "nM"}, {"measurement": "apparent KD of MS2 coat protein", "setting": "input ligand: none", "result": 224, "unit": "nM"}]}
{"sequence": "ACUCCUCCUGUUAGGAUAUGCAUCGGGCUUCCGCAGCAGAAGGAACAUGAGGAUCACCCAUGUCAAAUAAAAUC (Eterna round: R97, puzzle: Brourd's mod of Exclusion 4)", "values": [{"measurement": "apparent KD of MS2 coat protein", "setting": "input ligand: FMN 200 uM", "result": 243, "unit": "nM"}, {"measurement": "apparent KD of MS2 coat protein", "setting": "input ligand: none", "result": 26.3, "unit": "nM"}]}
{"sequence": "UCUUCACAUGAGGAUCACCCAUGUGAGGAUAUGGAUUCGCUGGCCGUAGCCAGUGGAUCCAGAAGGCGCGUGAU [JL-ex1-4.23] (Eterna round: R97, puzzle: Exclusion 1)", "values": [{"measurement": "apparent KD of MS2 coat protein", "setting": "input ligand: FMN 200 uM", "result": 65, "unit": "nM"}, {"measurement": "apparent KD of MS2 coat protein", "setting": "input ligand: none", "result": 74, "unit": "nM"}]}
{"sequence": "CUUUUGUGAGGAUAUCAGUAUUAAAUAAAUAAAAUUACUACUGAGAAGGCACAUGAGGAUCACCCAUGUUCCUC [salish99_ex3_r3_074] (puzzle: Exclusion 4)", "values": [{"measurement": "apparent KD of MS2 coat protein", "setting": "[2]", "result": 37.5, "unit": "nM"}]}
{"sequence": "GAGAGCUGAGGAUAUACAUGAGGAUCACCCAUGUACCACCUUGCCGGCACAGAUCCUUGUAGAAGGCGGCUCUA [Eternabot (L2) Solution 57] (Eterna round: R97, puzzle: Exclusion 3)", "values": [{"measurement": "apparent KD of MS2 coat protein", "setting": "input ligand: FMN 200 uM", "result": 51.3, "unit": "nM"}, {"measurement": "apparent KD of MS2 coat protein", "setting": "input ligand: none", "result": 161, "unit": "nM"}]}
{"sequence": "AUAUAGUCAGGAUAUCGAAAUAUAUAUUAAUAUAUAUAAUACGAGAAGGGACAUGAGGAUCACCCAUGUAGUAA [JR_Exclusion4)Sub001] (puzzle: Exclusion 4)", "values": [{"measurement": "apparent KD of MS2 coat protein", "setting": "[2]", "result": 23.7, "unit": "nM"}]}
{"sequence": "UUAAUUAAUGUAGGAUAUGCAAGGCGAACCUAAGCAGAAGGACAUGUGGAUCACCCAUGUAAUGCGGUCUGCGUACAGAUCGCU [salish99_ex1_NG1_001] (Eterna round: R96, puzzle: Exclusion NG 1)", "values": [{"measurement": "apparent KD of MS2 coat protein", "setting": "input ligand: FMN 200 uM", "result": 271, "unit": "nM"}, {"measurement": "apparent KD of MS2 coat protein", "setting": "[4]", "result": 1170, "unit": "nM"}, {"measurement": "apparent KD of MS2 coat protein", "setting": "input ligand: none", "result": 1270, "unit": "nM"}]}
{"sequence": "AGAGAAUACUCAGGAUAUCUGAAUAGAAAGAGAAGAGAAGGGAGACAUGAGGAUCACCCAUGUGAAGUCUUGAGGCUGCAUGGA [Prohibition 25 - Jieux - Exclusion NG 1] (Eterna round: R96, puzzle: Exclusion NG 1)", "values": [{"measurement": "apparent KD of MS2 coat protein", "setting": "input ligand: FMN 200 uM", "result": 83.5, "unit": "nM"}, {"measurement": "apparent KD of MS2 coat protein", "setting": "[4]", "result": 145, "unit": "nM"}, {"measurement": "apparent KD of MS2 coat protein", "setting": "input ligand: none", "result": 106, "unit": "nM"}]}
{"sequence": "AAAUCGUGAGGAUAUCCAAUAUAUGACAUGAGGAUCACCCAUGUUUCCACUCGUACCUCCGGAGAAGGCACAGUUA [Ex5 #73] (Eterna round: R97, puzzle: Exclusion 5)", "values": [{"measurement": "apparent KD of MS2 coat protein", "setting": "input ligand: FMN 200 uM", "result": 24.7, "unit": "nM"}, {"measurement": "apparent KD of MS2 coat protein", "setting": "input ligand: none", "result": 26.3, "unit": "nM"}]}
{"sequence": "AAAUCGGUAGAGGAUAUUGUACAGGAAACGGUGCAAGAAGGUUGCACAUGAGGAUCACCCAUGUUUAAUUGCGA [EX6 #50] (Eterna round: R97, puzzle: Exclusion 6)", "values": [{"measurement": "apparent KD of MS2 coat protein", "setting": "input ligand: FMN 200 uM", "result": 33.9, "unit": "nM"}, {"measurement": "apparent KD of MS2 coat protein", "setting": "input ligand: none", "result": 36.2, "unit": "nM"}]}
